According to patent publication EP0912608B1:

Biological target: Fibronectin from human plasma (human) (UniProt P02751)
Assay: cell-based or functional assay

UniProt P02751, sequence (P02751 other isoform, or with tags, fused parts or gaps limits assumed): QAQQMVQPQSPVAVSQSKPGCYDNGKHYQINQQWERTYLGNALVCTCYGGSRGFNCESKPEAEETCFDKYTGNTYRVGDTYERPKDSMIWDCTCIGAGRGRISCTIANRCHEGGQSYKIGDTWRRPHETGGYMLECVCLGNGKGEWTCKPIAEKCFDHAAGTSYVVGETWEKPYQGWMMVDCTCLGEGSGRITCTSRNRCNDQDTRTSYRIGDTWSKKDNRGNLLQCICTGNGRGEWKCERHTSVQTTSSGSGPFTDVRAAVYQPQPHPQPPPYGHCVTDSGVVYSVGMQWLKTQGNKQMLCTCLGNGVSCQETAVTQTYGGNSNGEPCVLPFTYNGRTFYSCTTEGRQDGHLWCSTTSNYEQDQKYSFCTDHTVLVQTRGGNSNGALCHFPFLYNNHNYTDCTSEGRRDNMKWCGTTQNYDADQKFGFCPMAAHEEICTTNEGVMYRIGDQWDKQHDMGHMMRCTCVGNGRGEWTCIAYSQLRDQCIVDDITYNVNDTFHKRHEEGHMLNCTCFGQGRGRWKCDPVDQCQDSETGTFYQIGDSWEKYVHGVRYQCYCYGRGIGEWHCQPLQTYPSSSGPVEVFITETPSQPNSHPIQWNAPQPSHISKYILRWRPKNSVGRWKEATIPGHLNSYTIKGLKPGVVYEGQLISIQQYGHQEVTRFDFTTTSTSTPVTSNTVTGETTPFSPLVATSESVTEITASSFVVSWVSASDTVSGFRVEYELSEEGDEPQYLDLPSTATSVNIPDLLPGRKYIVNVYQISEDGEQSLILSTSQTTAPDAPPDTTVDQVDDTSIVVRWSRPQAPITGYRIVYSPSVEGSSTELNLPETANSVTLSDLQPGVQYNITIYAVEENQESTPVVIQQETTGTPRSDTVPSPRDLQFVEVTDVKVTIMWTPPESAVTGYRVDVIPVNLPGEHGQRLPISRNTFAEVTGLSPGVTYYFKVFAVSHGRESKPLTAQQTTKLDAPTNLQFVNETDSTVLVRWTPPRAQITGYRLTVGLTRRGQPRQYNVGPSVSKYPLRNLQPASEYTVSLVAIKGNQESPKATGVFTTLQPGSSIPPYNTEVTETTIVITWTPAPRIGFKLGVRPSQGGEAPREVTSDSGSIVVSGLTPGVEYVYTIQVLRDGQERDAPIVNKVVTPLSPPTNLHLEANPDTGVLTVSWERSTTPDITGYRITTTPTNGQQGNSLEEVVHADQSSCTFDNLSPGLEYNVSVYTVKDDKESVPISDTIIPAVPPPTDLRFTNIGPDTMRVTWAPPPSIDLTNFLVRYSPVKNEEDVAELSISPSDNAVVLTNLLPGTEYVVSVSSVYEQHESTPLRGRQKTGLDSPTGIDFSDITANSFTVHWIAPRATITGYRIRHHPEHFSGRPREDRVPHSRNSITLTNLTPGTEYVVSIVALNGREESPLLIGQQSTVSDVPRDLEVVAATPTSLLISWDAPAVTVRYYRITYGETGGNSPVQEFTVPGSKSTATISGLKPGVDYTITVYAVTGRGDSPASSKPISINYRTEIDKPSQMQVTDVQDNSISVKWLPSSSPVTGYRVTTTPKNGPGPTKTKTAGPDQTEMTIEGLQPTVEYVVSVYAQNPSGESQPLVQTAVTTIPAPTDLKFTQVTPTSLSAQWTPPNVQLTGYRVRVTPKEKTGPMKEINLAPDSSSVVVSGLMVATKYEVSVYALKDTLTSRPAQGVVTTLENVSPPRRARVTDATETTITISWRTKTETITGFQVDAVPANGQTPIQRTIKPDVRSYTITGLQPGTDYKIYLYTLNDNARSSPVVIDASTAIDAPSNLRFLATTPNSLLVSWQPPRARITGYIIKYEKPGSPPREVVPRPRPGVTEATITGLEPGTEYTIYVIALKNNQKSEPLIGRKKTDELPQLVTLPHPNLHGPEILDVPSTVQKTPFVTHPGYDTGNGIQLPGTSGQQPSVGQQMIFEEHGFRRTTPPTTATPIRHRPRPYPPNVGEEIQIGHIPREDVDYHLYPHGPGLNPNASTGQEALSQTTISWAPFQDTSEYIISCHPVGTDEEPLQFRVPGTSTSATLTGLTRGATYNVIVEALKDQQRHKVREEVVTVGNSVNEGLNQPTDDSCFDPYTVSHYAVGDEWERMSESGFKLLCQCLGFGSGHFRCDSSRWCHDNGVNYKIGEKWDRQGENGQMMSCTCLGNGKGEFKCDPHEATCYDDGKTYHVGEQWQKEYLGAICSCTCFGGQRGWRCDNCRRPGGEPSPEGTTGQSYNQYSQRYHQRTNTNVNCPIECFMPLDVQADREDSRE

For “yeast enolase (Sigma) (from UniProt P00924 2-437) (enzyme)”, which inhibition of pneumococcal adherence to fibronectin is on record?
Its inhibition of pneumococcal adherence to fibronectin is 98%.
